Laboratory results taken from paper PMC9482650, “Quantitative fragmentomics allow affinity mapping of interactomes” (Nature Communications, 2022).
Changes are numbered by the printed parent chain.

How the values were obtained:
Experiment in all cases: holdup assay
Design in all cases: key: below the threshold = too weak to quantify, mostly under pKd 3.1 to 4
Conditions in all cases: plain residues with an end cap or a label only (N-terminal biotin on a linker: ado-ado)
ARHGAP21, Q5T5U3 = target: T1, ARHGAP21, Q5T5U3
T1 sequence (Q5T5U3 45-169, limits assumed, looked up): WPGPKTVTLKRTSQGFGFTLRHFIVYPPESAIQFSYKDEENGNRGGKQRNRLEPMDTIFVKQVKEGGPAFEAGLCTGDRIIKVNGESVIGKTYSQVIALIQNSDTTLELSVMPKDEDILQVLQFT

ARHGEF11, O15085 = target: T2, ARHGEF11, O15085
T2 sequence (O15085 42-136, limits assumed, looked up): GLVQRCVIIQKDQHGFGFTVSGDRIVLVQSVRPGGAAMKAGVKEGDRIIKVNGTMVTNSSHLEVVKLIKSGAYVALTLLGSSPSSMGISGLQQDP

DFNB31_3, Q9P202 = target: T3, DFNB31_3, Q9P202
T3 sequence (Q9P202 811-907, limits assumed, looked up): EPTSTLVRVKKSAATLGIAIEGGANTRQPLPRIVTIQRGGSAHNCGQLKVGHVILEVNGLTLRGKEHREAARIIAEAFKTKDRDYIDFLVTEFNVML

DLG4_2, P78352 = target: DLG4_2, P78352
FRMPD1, Q5SYB0 = target: T4, FRMPD1, Q5SYB0
T4 sequence (Q5SYB0 52-145, limits assumed, looked up): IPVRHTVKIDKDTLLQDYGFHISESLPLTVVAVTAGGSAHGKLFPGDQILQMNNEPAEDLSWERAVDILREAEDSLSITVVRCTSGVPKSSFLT

GIPC2, Q8TF65 = target: GIPC2, Q8TF65
GRID2IP_2, A4D2P6 = target: GRID2IP_2, A4D2P6
GRIP1_5, Q9Y3R0 = target: T5, GRIP1_5, Q9Y3R0
T5 sequence (Q9Y3R0 568-668, limits assumed, looked up): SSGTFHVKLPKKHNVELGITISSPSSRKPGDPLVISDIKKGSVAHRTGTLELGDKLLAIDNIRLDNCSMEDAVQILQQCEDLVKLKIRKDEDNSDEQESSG

GRIP2_4, Q9C0E4 = target: GRIP2_4, Q9C0E4
IL16_3, Q14005 = target: IL16_3, Q14005
Inadl_10, Q8NI35 = target: Inadl_10, Q8NI35
Inadl_8, Q8NI35 = target: Inadl_8, Q8NI35
LIN7B, Q9HAP6 = target: T6, LIN7B, Q9HAP6
T6 sequence (Q9HAP6 88-185, limits assumed, looked up): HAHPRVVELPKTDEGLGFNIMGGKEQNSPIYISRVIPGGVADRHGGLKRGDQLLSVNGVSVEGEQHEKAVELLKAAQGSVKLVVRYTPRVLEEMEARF

LIN7C, Q9NUP9 = target: T7, LIN7C, Q9NUP9
T7 sequence (Q9NUP9 88-185, limits assumed, looked up): T6 sequence (Q9HAP6 88-185, limits assumed, looked up) with A2S, D13E, V35I, V40I, Q65H, S79K, R89K, A96S

LNX1_1, Q8TBB1 = target: LNX1_1, Q8TBB1
MAGI2_4, Q86UL8 = target: MAGI2_4, Q86UL8
MPP2, Q14168 = target: T8, MPP2, Q14168
T8 sequence (Q14168 180-250, limits assumed, looked up): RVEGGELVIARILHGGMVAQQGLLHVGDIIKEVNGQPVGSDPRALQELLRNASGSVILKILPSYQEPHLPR

NHERF3_3, Q5T2W1 = target: T9, NHERF3_3, Q5T2W1
T9 sequence (Q5T2W1 238-333, limits assumed, looked up): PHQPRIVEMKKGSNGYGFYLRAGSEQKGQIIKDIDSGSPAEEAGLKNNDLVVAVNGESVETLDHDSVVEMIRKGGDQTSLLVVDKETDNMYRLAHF

NHERF4_2, Q86UT5 = target: NHERF4_2, Q86UT5
NOS1, P29475 = target: NOS1, P29475
PARD3B_1, Q8TEW8 = target: T10, PARD3B_1, Q8TEW8
T10 sequence (Q8TEW8 196-299, limits assumed, looked up): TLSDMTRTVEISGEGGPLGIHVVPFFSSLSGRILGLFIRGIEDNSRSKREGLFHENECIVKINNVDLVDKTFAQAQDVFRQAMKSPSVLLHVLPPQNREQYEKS

PARD3_3, Q8TEW0 = target: PARD3_3, Q8TEW0
PCLO, Q9Y6V0 = target: T11, PCLO, Q9Y6V0
T11 sequence (Q9Y6V0 4491-4600, limits assumed, looked up): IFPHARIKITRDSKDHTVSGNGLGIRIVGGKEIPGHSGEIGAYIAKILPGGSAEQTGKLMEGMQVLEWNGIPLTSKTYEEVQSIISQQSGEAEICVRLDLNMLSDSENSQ

PTPN13_1, Q12923 = target: T12, PTPN13_1, Q12923
T12 sequence (Q12923 1088-1188, limits assumed, looked up): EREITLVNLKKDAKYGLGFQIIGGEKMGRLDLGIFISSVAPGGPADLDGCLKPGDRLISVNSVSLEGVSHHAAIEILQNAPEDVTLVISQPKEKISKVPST

GRID2IP_2, A4D2P6, sequence (A4D2P6 272-370): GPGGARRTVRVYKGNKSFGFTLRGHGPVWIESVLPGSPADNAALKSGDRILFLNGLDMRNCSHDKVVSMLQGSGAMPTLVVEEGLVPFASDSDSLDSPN
GRIP2_4, Q9C0E4, sequence (Q9C0E4 446-548): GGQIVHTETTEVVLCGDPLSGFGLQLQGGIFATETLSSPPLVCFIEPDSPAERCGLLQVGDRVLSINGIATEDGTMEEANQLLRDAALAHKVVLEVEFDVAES
GIPC2, Q8TF65, sequence (Q8TF65 112-203): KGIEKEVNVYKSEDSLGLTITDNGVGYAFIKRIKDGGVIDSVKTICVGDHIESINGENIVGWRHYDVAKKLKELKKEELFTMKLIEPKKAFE
NOS1, P29475, sequence (P29475 9-101): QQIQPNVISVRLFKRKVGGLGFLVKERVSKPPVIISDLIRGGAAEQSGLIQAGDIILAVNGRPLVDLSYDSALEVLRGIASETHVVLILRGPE
Inadl_8, Q8NI35, sequence (Q8NI35 1425-1530): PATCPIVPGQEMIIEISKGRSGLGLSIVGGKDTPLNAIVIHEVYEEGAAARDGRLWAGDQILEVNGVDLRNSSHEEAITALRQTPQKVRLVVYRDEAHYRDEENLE
DLG4_2, P78352, sequence (P78352 155-259): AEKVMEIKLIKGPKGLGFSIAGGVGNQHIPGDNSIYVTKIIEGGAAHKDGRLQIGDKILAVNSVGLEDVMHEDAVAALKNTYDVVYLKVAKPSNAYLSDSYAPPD
MAGI2_4, Q86UL8, sequence (Q86UL8 772-865): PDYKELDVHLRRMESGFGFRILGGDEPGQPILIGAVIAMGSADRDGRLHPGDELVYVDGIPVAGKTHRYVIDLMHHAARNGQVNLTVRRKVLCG
IL16_3, Q14005, sequence (Q14005 1107-1207): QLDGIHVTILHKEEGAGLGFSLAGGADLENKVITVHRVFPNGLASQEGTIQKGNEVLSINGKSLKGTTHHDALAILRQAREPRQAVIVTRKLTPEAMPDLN
NHERF4_2, Q86UT5, sequence (Q86UT5 220-308): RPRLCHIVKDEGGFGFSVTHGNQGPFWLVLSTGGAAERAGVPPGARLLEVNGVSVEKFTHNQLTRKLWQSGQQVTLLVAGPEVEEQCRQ
LNX1_1, Q8TBB1, sequence (Q8TBB1 261-371): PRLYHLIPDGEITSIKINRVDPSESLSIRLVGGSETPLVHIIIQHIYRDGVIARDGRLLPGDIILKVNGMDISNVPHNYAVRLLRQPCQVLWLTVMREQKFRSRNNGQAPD
Inadl_10, Q8NI35, sequence (Q8NI35 1673-1763): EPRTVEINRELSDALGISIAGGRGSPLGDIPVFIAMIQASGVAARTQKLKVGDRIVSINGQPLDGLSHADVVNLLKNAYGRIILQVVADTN
PARD3_3, Q8TEW0, sequence (Q8TEW0 582-685): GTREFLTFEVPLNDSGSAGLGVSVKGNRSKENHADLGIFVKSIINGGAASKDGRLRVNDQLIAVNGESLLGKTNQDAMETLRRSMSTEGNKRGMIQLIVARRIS

AEDEEIQTKM [UNC93A, Q86WB7]
pKd (ARHGAP21, Q5T5U3): 3.9
pKd (ARHGEF11, O15085): below the threshold
pKd (DFNB31_3, Q9P202): 3.88
pKd (DLG4_2, P78352): below the threshold
pKd (FRMPD1, Q5SYB0): below the threshold
pKd (GIPC2, Q8TF65): below the threshold
pKd (GRID2IP_2, A4D2P6): 3.77
pKd (GRIP1_5, Q9Y3R0): below the threshold
pKd (GRIP2_4, Q9C0E4): below the threshold
pKd (IL16_3, Q14005): below the threshold
pKd (Inadl_10, Q8NI35): below the threshold
pKd (Inadl_8, Q8NI35): below the threshold
pKd (LIN7B, Q9HAP6): below the threshold
pKd (LIN7C, Q9NUP9): below the threshold
pKd (LNX1_1, Q8TBB1): below the threshold
pKd (MAGI2_4, Q86UL8): below the threshold
pKd (MPP2, Q14168): below the threshold
pKd (NHERF3_3, Q5T2W1): 4.16
pKd (NHERF4_2, Q86UT5): below the threshold
pKd (NOS1, P29475): below the threshold
pKd (PARD3B_1, Q8TEW8): below the threshold
pKd (PARD3_3, Q8TEW0): below the threshold
pKd (PCLO, Q9Y6V0): below the threshold
pKd (PTPN13_1, Q12923): below the threshold

NRVDSKETEC [ADAM17, P78536]
pKd (ARHGAP21, Q5T5U3): below the threshold
pKd (ARHGEF11, O15085): 3.59
pKd (DFNB31_3, Q9P202): 3.92
pKd (DLG4_2, P78352): 4.34
pKd (FRMPD1, Q5SYB0): below the threshold
pKd (GIPC2, Q8TF65): 4.27
pKd (GRID2IP_2, A4D2P6): below the threshold
pKd (GRIP1_5, Q9Y3R0): below the threshold
pKd (GRIP2_4, Q9C0E4): below the threshold
pKd (IL16_3, Q14005): below the threshold
pKd (Inadl_10, Q8NI35): below the threshold
pKd (Inadl_8, Q8NI35): below the threshold
pKd (LIN7B, Q9HAP6): 4.05
pKd (LIN7C, Q9NUP9): 3.81
pKd (LNX1_1, Q8TBB1): below the threshold
pKd (MAGI2_4, Q86UL8): 3.53
pKd (MPP2, Q14168): below the threshold
pKd (NHERF3_3, Q5T2W1): below the threshold
pKd (NHERF4_2, Q86UT5): below the threshold
pKd (NOS1, P29475): below the threshold
pKd (PARD3B_1, Q8TEW8): below the threshold
pKd (PARD3_3, Q8TEW0): below the threshold
pKd (PCLO, Q9Y6V0): below the threshold
pKd (PTPN13_1, Q12923): below the threshold

VRPGVKESLV [SCN4A, P35499]
pKd (ARHGAP21, Q5T5U3): below the threshold
pKd (ARHGEF11, O15085): below the threshold
pKd (DFNB31_3, Q9P202): below the threshold
pKd (DLG4_2, P78352): 5.71
pKd (FRMPD1, Q5SYB0): below the threshold
pKd (GIPC2, Q8TF65): below the threshold
pKd (GRID2IP_2, A4D2P6): 3.64
pKd (GRIP1_5, Q9Y3R0): below the threshold
pKd (GRIP2_4, Q9C0E4): below the threshold
pKd (IL16_3, Q14005): below the threshold
pKd (Inadl_10, Q8NI35): below the threshold
pKd (Inadl_8, Q8NI35): 4.15
pKd (LIN7B, Q9HAP6): 4.04
pKd (LIN7C, Q9NUP9): 4.38
pKd (LNX1_1, Q8TBB1): 3.89
pKd (MAGI2_4, Q86UL8): 4.37
pKd (MPP2, Q14168): below the threshold
pKd (NHERF3_3, Q5T2W1): below the threshold
pKd (NHERF4_2, Q86UT5): below the threshold
pKd (NOS1, P29475): 3.97
pKd (PARD3B_1, Q8TEW8): below the threshold
pKd (PARD3_3, Q8TEW0): below the threshold
pKd (PCLO, Q9Y6V0): below the threshold
pKd (PTPN13_1, Q12923): below the threshold

RDFDYIADWC [PKN2, Q16513]
pKd (ARHGAP21, Q5T5U3): 3.71
pKd (ARHGEF11, O15085): 3.68
pKd (DFNB31_3, Q9P202): below the threshold
pKd (DLG4_2, P78352): below the threshold
pKd (FRMPD1, Q5SYB0): below the threshold
pKd (GIPC2, Q8TF65): below the threshold
pKd (GRID2IP_2, A4D2P6): below the threshold
pKd (GRIP1_5, Q9Y3R0): below the threshold
pKd (GRIP2_4, Q9C0E4): below the threshold
pKd (IL16_3, Q14005): below the threshold
pKd (Inadl_10, Q8NI35): below the threshold
pKd (Inadl_8, Q8NI35): 4.55
pKd (LIN7B, Q9HAP6): 3.9
pKd (LIN7C, Q9NUP9): below the threshold
pKd (LNX1_1, Q8TBB1): below the threshold
pKd (MAGI2_4, Q86UL8): 3.53
pKd (MPP2, Q14168): 3.49
pKd (NHERF3_3, Q5T2W1): below the threshold
pKd (NHERF4_2, Q86UT5): below the threshold
pKd (NOS1, P29475): 4.12
pKd (PARD3B_1, Q8TEW8): 3.54
pKd (PARD3_3, Q8TEW0): 3.76
pKd (PCLO, Q9Y6V0): below the threshold
pKd (PTPN13_1, Q12923): below the threshold

SVISRREWYV [NECTIN3, Q9NQS3]
pKd (ARHGAP21, Q5T5U3): 4.29
pKd (ARHGEF11, O15085): 4.55
pKd (DFNB31_3, Q9P202): 3.52
pKd (DLG4_2, P78352): 3.75
pKd (FRMPD1, Q5SYB0): below the threshold
pKd (GIPC2, Q8TF65): below the threshold
pKd (GRID2IP_2, A4D2P6): 3.49
pKd (GRIP1_5, Q9Y3R0): below the threshold
pKd (GRIP2_4, Q9C0E4): below the threshold
pKd (IL16_3, Q14005): below the threshold
pKd (Inadl_10, Q8NI35): below the threshold
pKd (Inadl_8, Q8NI35): 3.98
pKd (LIN7B, Q9HAP6): below the threshold
pKd (LIN7C, Q9NUP9): 3.95
pKd (LNX1_1, Q8TBB1): below the threshold
pKd (MAGI2_4, Q86UL8): 4.11
pKd (MPP2, Q14168): 4.57
pKd (NHERF3_3, Q5T2W1): below the threshold
pKd (NHERF4_2, Q86UT5): below the threshold
pKd (NOS1, P29475): 4.04
pKd (PARD3B_1, Q8TEW8): 4.79
pKd (PARD3_3, Q8TEW0): 4.75
pKd (PCLO, Q9Y6V0): below the threshold
pKd (PTPN13_1, Q12923): below the threshold

LDKESFLTWL [YAP1, P46937]
pKd (ARHGAP21, Q5T5U3): 4.89
pKd (ARHGEF11, O15085): 5.32
pKd (DFNB31_3, Q9P202): 5.37
pKd (DLG4_2, P78352): below the threshold
pKd (FRMPD1, Q5SYB0): below the threshold
pKd (GIPC2, Q8TF65): below the threshold
pKd (GRID2IP_2, A4D2P6): 4.52
pKd (GRIP1_5, Q9Y3R0): below the threshold
pKd (GRIP2_4, Q9C0E4): below the threshold
pKd (IL16_3, Q14005): below the threshold
pKd (Inadl_10, Q8NI35): 5.45
pKd (Inadl_8, Q8NI35): 3.48
pKd (LIN7B, Q9HAP6): 3.48
pKd (LIN7C, Q9NUP9): below the threshold
pKd (LNX1_1, Q8TBB1): 4.25
pKd (MAGI2_4, Q86UL8): 3.94
pKd (MPP2, Q14168): below the threshold
pKd (NHERF3_3, Q5T2W1): 4.15
pKd (NHERF4_2, Q86UT5): below the threshold
pKd (NOS1, P29475): 4.03
pKd (PARD3B_1, Q8TEW8): 4.44
pKd (PARD3_3, Q8TEW0): 4.98
pKd (PCLO, Q9Y6V0): 3.57
pKd (PTPN13_1, Q12923): below the threshold
